Measurements taken from patent publication US20220009992A1 (FRED HUTCHINSON CANCER CENTER, published 2022).

Molecular target: peptide #10 (from the gene EHF) presented on peptide-pulsed T2 target cells (human, UniProt P61769 21-119)
Assay: cell-based or functional assay

EC50 of peptide for IFN-γ production, ratio to the EC50 for Msln530: > 3000 fold (EC50 for peptide #10 over EC50 for Msln530)
B1: TCR Msln530-B11 (TCR, V domains shown)
V domain 1: ETGVTQSPTHLIKTRGQQVTLRCSSQSGHNTVSWYQQALGQGPQFIFQYYREEENGRGNFPPRFSGLQFPNYSSELNVNALELDDSALYLCASSFAGGRSDTQYFGPGTRLTVLE
V domain 2: KQEVTQIPAALSVPEGENLVLNCSFTDSAIYNLQWFRQDPGKGLTSLLLIQSSQREQTSGRLNASLDKSSGRSTLYIAASQPGDSATYLCAVRLLFAQGGSEKLVFGKGTKLTVNP
